# From PMC2700308
# Biological target: gp120 prebound to sCD4 (HIV-1, subtype B, strain YU2 | human) (UniProt P35961)
# Experiment: ITC
substance,measurement,value
"S22 peptide, 22 amino acid tyrosine-sulfated peptide corresponding to the CCR5 N-terminus (from UniProt P51681 1-22)",Kd,2.2 µM
